Blank lines part the entries; values can stand above or below the binder they belong to.
B4: CCT4, subunit of bovine TRiC/CCT (bTRiC) (natural protein, Bos taurus, UniProt Q2T9X2 1-542, looked up)
chain: MPENVAPRTGPPAGAAGAAGGRGKSAYQDRDKPAQIRFSNISAAKAVADAIRTSLGPKGMDKMIQDGKGDVTITNDGATILKQMQVLHPAARMLVELSKAQDIEAGDGTTSVVIIAGSLLDSCTKLLQKGIHPTIISESFQKALEKGIEILTDMSRPEELSDRETLLNSAATSLNSKVVSQYSSLLSPMSVDAVMKVIDPATATSVDLRDIKIVKKLGGTIDDCELVEGLVLTQKVANSGITRVEKAKIGLIQFCLSAPKTDMDNQIVVSDYVQMDRVLREERAYILNLVKQIKKTGCNVLLIQKSILRDALSDLALHFLNKMKIMVVKDIEREDIEFICKTIGTKPVAHVDQFTADMLGSAELAEEVSLNGSGKLIKITGCASPGKTVTIVVRGSNKLVIEEAERSIHDALCVIRCLVKKRALIAGGGAPEIELALRLTEYSRTLSGMESYCIRAFADAMEVIPSTLAENAGLNPISTVTELRNRHAQGEKTTGINVRKGGISNILEEQVVQPLLVSVSALTLATETVRSILKIDDVVNTR

How the values were obtained:
Assay in all cases: cross-linking
[1] = biological target: CCT4, subunit of yeast TRiC/CCT (yTRiC) (Saccharomyces cerevisiae, UniProt P39078 1-528)
CCT4, subunit of yeast TRiC/CCT (yTRiC), sequence (P39078 whole entry): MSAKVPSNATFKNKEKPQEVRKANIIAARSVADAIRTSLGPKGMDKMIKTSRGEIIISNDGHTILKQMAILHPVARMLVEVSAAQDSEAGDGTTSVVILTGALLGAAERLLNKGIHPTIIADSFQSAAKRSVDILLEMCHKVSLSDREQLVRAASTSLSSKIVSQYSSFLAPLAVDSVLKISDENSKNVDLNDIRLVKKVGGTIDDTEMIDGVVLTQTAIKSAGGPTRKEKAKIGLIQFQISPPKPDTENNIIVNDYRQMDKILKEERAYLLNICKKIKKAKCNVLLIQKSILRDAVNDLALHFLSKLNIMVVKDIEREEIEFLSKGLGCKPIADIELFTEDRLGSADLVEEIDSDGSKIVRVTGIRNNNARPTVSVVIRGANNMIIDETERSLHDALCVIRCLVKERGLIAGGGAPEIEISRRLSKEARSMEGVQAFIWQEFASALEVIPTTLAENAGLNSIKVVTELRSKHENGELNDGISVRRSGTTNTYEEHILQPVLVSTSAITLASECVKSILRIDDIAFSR

[2] = biological target: B4
[3] = biological target: T1, CCT8, subunit of bovine TRiC/CCT (bTRiC) (Bos taurus, UniProt Q3ZCI9 1-548)
T1 sequence (looked up): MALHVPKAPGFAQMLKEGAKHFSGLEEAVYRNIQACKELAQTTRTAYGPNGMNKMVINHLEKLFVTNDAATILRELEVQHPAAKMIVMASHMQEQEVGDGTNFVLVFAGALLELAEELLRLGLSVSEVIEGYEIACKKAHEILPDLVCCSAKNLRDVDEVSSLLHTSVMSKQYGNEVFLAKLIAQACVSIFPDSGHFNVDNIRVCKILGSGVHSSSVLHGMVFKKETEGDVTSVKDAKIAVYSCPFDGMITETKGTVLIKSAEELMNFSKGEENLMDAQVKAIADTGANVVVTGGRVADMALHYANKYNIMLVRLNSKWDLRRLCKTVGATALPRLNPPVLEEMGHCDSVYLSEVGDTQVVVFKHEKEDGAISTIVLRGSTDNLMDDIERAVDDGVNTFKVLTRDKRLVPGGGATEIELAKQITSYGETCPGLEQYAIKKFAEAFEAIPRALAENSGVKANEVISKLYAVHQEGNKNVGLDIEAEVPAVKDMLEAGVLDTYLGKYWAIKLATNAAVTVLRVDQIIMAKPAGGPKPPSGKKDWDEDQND

[4] = biological target: CCT1, subunit of bovine TRiC/CCT (bTRiC) (Bos taurus, UniProt Q32L40 1-556)
CCT1, subunit of bovine TRiC/CCT (bTRiC), sequence (Q32L40 whole entry): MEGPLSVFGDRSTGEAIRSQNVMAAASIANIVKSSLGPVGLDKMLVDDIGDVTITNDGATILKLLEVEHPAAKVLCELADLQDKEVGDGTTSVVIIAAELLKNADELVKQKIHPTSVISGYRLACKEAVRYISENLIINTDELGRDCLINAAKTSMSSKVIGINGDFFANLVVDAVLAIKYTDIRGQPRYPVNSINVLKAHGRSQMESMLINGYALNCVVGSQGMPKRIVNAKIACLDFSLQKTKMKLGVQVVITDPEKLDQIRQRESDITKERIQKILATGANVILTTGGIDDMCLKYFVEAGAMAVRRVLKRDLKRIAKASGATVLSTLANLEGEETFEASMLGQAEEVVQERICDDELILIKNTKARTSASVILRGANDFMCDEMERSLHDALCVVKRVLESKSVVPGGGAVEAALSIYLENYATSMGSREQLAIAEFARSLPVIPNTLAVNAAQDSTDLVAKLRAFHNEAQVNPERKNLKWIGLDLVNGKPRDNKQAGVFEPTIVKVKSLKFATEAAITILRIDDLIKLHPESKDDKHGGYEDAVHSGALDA

binding result [1]: binds
B1: CCT2, subunit of yeast TRiC/CCT (yTRiC) (natural protein, Saccharomyces cerevisiae, UniProt P39076 1-527, looked up)
chain: MSVQIFGDQVTEERAENARLSAFVGAIAVGDLVKSTLGPKGMDKLLQSASSNTCMVTNDGATILKSIPLDNPAAKVLVNISKVQDDEVGDGTTSVTVLSAELLREAEKLIDQSKIHPQTIIEGYRLASAAALDALTKAAVDNSHDKTMFREDLIHIAKTTLSSKILSQDKDHFAELATNAILRLKGSTNLEHIQIIKILGGKLSDSFLDEGFILAKKFGNNQPKRIENAKILIANTTLDTDKVKIFGTKFKVDSTAKLAQLEKAEREKMKNKIAKISKFGINTFINRQLIYDYPEQLFTDLGINSIEHADFEGVERLALVTGGEVVSTFDEPSKCKLGECDVIEEIMLGEQPFLKFSGCKAGEACTIVLRGATDQTLDEAERSLHDALSVLSQTTKETRTVLGGGCAEMVMSKAVDTEAQNIDGKKSLAVEAFARALRQLPTILADNAGFDSSELVSKLRSSIYNGISTSGLDLNNGTIADMRQLGIVESYKLKRAVVSSASEAAEVLLRVDNIIRARPRTANRQHM

binding result [2]: binds
B2: CCT2, subunit of bovine TRiC/CCT (bTRiC) (natural protein, Bos taurus, UniProt Q3ZBH0 1-535, looked up)
chain: MASLSLAPVNIFKAGADEERAETARLSSFIGAIAIGDLVKSTLGPKGMDKILLSSGRDASLMVTNDGATILKNIGVDNPAAKVLVDMSRVQDDEVGDGTTSVTVLAAELLREAESLIAKKIHPQTIIAGWREATKAARQALLNSAVDHGSDEVKFRQDLMNIAGTTLSSKLLTHHKDHFTKLAVEAVLRLKGSGNLEAIHVIKKLGGSLADSYLDEGFLLDKKIGVNQPKRIENAKILIANTGMDTDKIKIFGSRVRVDSTAKVAEIEHAEKEKMKEKVERILKHGINCFINRQLIYNYPEQLFGAAGVMAIEHADFVGVERLALVTGGEIASTFDHPELVKLGSCKLIEEVMIGEDKLIHFSGVALGEACTIVLRGATQQILDEAERSLHDALCVLAQTVKDSRTVYGGGCSEMLMAHAVTQLASRTPGKEAVAMESYAKALRMLPTIIADNAGYDSADLVAQLRAAHSEGKTTAGLDMKEGTIGDMSVLGITESFQVKRQVLLSAAEAAEVILRVDNIIKAAPRKRVPDHHPC

binding result [3]: binds
B3: CCT7, subunit of bovine TRiC/CCT (bTRiC) (natural protein, Bos taurus, UniProt Q2NKZ1 1-543, looked up)
chain: MMPTPVILLKEGTDSSQGIPQLVSNISACQVIAEAVRTTLGPRGMDKLIVDGRGKATISNDGATILKLLDVVHPAAKTLVDIAKSQDAEVGDGTTSVTLLAAEFLKQVKPYVEEGLHPQIIIRAFRTATQLAVNKIKEIAVTVKKEDKVEQRKLLEKCAMTALSSKLISQQKAFFAKMVVDAVMMLDDLLQLKMIGIKKVQGGALEESQLVAGVAFKKTFSYAGFEMQPKKYHNPMIALLNVELELKAEKDNAEIRVHTVEDYQAIVDAEWNILYDKLEKIHHSGAKVVLSKLPIGDVATQYFADRDMFCAGRVPEEDLKRTMMACGGSIQTSVNALSSDVLGRCQVFEETQIGGERYNFFTGCPKAKTCTIILRGGAEQFMEETERSLHDAIMIVRRAIKNDSVVAGGGAIEMELSKYLRDYSRTIPGKQQLLIGAYAKALEIIPRQLCDNAGFDATNILNKLRARHAQGGMWYGVDINTEDIADNFEAFVWEPAMVRINALTAASEAACLIVSVDETIKNPRSTVDASPAAGRGRGRGRLH

Binder: B4
binding result [4]: binds

binding result [4]: binds
B5: CCT3, subunit of bovine TRiC/CCT (bTRiC) (natural protein, Bos taurus, UniProt Q3T0K2 1-545, looked up)
chain: MMGHRPVLVLSQNTKRESGRKVQSGNINAAKTIADIIRTCLGPKSMMKMLLDPMGGIVMTNDGNAILREIQVQHPAAKSMIEISRTQDEEVGDGTTSVIILAGEMLSVAEHFLEQQMHPTVVISAYRKALDDMISTLKKISIPVDTSNRDTMLNIINSSITTKVISRWSSLACNIALDAVKTVQFEENGRKEIDIKKYARVEKIPGGIIEDSCVLRGVMINKDVTHPRMRRYIKNPRIVLLDSSLEYKKGESQTDIEITREEDFTRILQMEEEYIQQLCEDIIQLKPDVVITEKGISDLAQHYLMRANITAIRRVRKTDNNRIARACGARIVSRPEELREEDVGTGAGLLEIKKIGDEYFTFITECKDPKACTILLRGASKEILSEVERNLQDAMQVCRNVLLDPQLVPGGGASEMAVAHALTEKSKAMTGVEQWPYRAVAQALEVIPRTLIQNCGASTIRLLTSLRAKHTQENCETWGVNGETGTLVDMKELGIWEPLAVKLQTYKTAVETAVLLLRIDDIVSGHKKKGDDQSRQGGAPDAGQE

From publication PMC3350567 (Structure(London, England:1993), 2012)
